Reference: patent US20220340642A1 (Kyowa Kirin, published 2022)

T1: soluble recombinant of human TL1A (His6, GS linker, Leu72-Leu251) (human, UniProt O95150 72-251)
T1 construct: also called His6-TL1A; hTL1A
T1 sequence: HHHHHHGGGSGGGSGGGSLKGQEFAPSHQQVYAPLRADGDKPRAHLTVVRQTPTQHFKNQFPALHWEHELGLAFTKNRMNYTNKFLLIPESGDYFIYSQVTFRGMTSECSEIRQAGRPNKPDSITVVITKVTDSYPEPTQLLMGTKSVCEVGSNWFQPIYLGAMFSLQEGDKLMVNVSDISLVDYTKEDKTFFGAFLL

T2: soluble recombinant of cynomolgus monkey TL1A (His6, GS linker, Leu72-Leu251) (cynomolgus monkey)
T2 construct: also called His6-cynoTL1A
T2 chain: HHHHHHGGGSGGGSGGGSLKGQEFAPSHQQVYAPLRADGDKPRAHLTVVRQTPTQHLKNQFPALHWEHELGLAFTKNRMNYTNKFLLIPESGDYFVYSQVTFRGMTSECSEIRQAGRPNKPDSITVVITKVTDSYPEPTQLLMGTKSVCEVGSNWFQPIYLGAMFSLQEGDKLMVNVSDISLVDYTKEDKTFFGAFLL

T3: soluble recombinant of cynomolgus monkey FasL (His6, Pro133-Leu280) (cynomolgus monkey, UniProt P63308 133-280)
T3 construct: also called His6-cynoFasL
T3 sequence: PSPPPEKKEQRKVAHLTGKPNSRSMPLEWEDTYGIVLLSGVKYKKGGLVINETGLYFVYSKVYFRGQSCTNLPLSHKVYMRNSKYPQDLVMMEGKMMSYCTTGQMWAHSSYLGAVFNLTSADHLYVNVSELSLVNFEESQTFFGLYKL

T4: FLAG-cynoLIGHT (FLAG tag, cynomolgus monkey LIGHT Asp74-Val240) (cynomolgus monkey)
T4 construct: SEC trimer fraction; also called soluble cynomolgus monkey LIGHT trimer
T4 chain: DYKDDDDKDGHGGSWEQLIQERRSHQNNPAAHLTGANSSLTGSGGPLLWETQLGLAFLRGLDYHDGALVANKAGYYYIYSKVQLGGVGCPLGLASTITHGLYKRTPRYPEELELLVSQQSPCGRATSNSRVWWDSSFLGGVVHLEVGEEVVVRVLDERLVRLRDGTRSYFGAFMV

T5: soluble recombinant of human TL1A (His6, GS linker, Leu72-Leu251) (UniProt O95150 72-251)
T5 chain: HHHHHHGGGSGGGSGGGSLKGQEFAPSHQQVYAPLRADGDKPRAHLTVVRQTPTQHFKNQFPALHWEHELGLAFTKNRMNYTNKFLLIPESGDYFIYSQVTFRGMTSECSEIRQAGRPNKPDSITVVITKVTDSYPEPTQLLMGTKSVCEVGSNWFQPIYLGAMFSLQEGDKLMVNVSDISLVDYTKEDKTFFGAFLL

T6: soluble recombinant of human LIGHT (His10, GS linker, Asp74-Val240)
T6 chain: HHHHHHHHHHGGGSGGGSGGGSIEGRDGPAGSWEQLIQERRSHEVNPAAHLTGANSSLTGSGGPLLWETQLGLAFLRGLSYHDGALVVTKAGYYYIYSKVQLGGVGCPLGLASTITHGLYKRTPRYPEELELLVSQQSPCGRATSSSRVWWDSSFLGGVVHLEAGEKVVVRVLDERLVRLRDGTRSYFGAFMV

T7: soluble recombinant of human FasL (His6, Pro134-Leu281) (UniProt P48023 134-281)
T7 chain: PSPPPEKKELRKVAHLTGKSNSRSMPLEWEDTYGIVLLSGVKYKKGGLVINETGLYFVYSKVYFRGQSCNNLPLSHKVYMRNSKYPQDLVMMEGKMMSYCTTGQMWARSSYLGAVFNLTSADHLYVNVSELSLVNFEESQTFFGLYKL

T8: soluble recombinant of cynomolgus monkey LIGHT (His10, GS linker, Asp74-Val240)
T8 chain: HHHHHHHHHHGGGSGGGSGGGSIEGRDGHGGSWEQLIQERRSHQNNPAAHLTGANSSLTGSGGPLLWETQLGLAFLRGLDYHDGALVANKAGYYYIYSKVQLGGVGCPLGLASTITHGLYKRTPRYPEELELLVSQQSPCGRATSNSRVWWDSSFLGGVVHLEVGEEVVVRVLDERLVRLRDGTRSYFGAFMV

T9: soluble recombinant of cynomolgus monkey FasL (His6, Pro133-Leu280) (UniProt P63308 133-280)
T9 chain: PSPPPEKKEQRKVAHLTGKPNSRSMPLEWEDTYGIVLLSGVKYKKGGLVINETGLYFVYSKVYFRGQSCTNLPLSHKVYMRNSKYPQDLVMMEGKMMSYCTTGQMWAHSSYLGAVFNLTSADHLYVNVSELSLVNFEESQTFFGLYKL

T10: soluble recombinant of cynomolgus monkey TL1A (His6, GS linker, Leu72-Leu251)
T10 chain: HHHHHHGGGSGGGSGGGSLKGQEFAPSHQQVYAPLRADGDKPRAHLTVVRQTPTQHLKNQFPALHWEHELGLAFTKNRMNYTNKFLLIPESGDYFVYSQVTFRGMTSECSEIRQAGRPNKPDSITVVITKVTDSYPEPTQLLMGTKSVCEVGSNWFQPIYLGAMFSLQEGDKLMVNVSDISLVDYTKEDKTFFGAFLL


How the values were obtained:
[1] = molecular target: T1, soluble recombinant of human TL1A …; experiment: SPR, binder captured on Protein A chip
Experimental: (§1) The binding activity to human and cynomolgus monkey DcR3 ligand trimers were analyzed by the SPR method. BIAcore T-100 (GE Healthcare) was used for measurement of the binding activities to human LIGHT, cynomolgus monkey LIGHT, human TL1A and cynomolgus monkey TL1A, and BIAcore T-200 (GE Healthcare) was used for measurement of the binding activities to human FasL and cynomolgus monkey FasL. As the buffer, HBS-EP+Buffer was used.
(§2) Various DcR3 variants were injected into Series S Sensor Chip Protein A (GE Healthcare) at 10 μL/min for 30 seconds and captured. Meanwhile, the buffer containing no protein was injected into a reference flow cell. Thereafter, as an analyte, each human DcR3 ligand trimer or each cynomolgus monkey DcR3 ligand trimer diluted to 0.08 to 20 nmol/L was injected. A human LIGHT trimer, a human TL1A trimer or each cynomolgus monkey DcR3 ligand trimer was injected at the flow rate of 30 μL/min for 2 minutes to monitor the binding, and subsequently the buffer was injected for 5 minutes to monitor dissociation. A human FasL trimer was injected at 30 μL/min for 1 minute to monitor the binding, and subsequently the buffer was injected for 3 minutes to monitor dissociation. Then, 3 mol/L magnesium chloride was injected at 30 μL/min for 1 minute to perform a regeneration reaction.

[2] = molecular target: T2, soluble recombinant of cynomolgus …; experiment: SPR, binder captured on Protein A chip
Experimental: as §1, §2

[3] = molecular target: T3, soluble recombinant of cynomolgus …; experiment: SPR, binder captured on Protein A chip
Experimental: as §1, §2

[4] = molecular target: T11, FLAG-LIGHT (FLAG tag, human LIGHT Asp74-Val240) (human, UniProt O43557 74-240); experiment: SPR, binder captured on Protein A chip
T11 construct: SEC trimer fraction; also called soluble recombinant FLAG-LIGHT trimer; soluble human LIGHT trimer
Experimental: as §1, §2

[5] = molecular target: T4, FLAG-cynoLIGHT (FLAG tag, cynomolgus …); experiment: SPR, binder captured on Protein A chip
Experimental: as §1, §2

[6] = molecular target: T5, soluble recombinant of human TL1A …; experiment: BIAcore SPR
Outline: (§3)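 The dissociation constant (Kd, nM) reflects binding of each test molecule to soluble recombinant His-tagged human or cynomolgus monkey LIGHT, TL1A or FasL. It was derived from surface plasmon resonance measurements in HBS-EP+ Buffer using a BIAcore T-100 or T-200 instrument (GE Healthcare).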

[7] = molecular target: T6, soluble recombinant of human LIGHT …; experiment: BIAcore SPR
Outline: as §3

[8] = molecular target: T7, soluble recombinant of human FasL …; experiment: BIAcore SPR
Outline: as §3

[9] = molecular target: T8, soluble recombinant of cynomolgus …; experiment: BIAcore SPR
Outline: as §3

[10] = molecular target: T9, soluble recombinant of cynomolgus …; experiment: BIAcore SPR
Outline: as §3

[11] = molecular target: T10, soluble recombinant of cynomolgus …; experiment: BIAcore SPR
Outline: as §3

Binder	binding result [1]	binding result [2]	binding result [3]	binding result [4]	binding result [5]	Kd [6] [nM]	Kd [7] [nM]	Kd [8] [nM]	Kd [9] [nM]	Kd [10] [nM]	Kd [11] [nM]
chimera A-E57V-Fc (Eg1S YTE) (Fc fusion) ETFPPKYLHYDEETSHQLLCDKCPPGTYLKQHCTAKWKTVCAPCPPRHYTQFWNYLVRCRYCNVLCGEREEEARACHATHNRACRCRTGFFAHAGFCLEHASCPPGAGVIAPGTPSQNTQCQPCPDGFFSNETSSKAPCRKHTNCSVFGLLLTQKGNATHDNICSGNSESTQKEPKSSDKTHTCPPCPAPELLGGPSVFLFPPKPKDTLYITREPEVTCVVVDVSHEDPEVKFNWYVDGVEVHNAKTKPREEQYNSTYRVVSVLTVLHQDWLNGKEYKCKVSNKALPAPIEKTISKAKGQPREPQVYTLPPSRDELTKNQVSLTCLVKGFYPSDIAVEWESNGQPENNYKTTPPVLDSDGSFFLYSKLTVDKSRWQQGNVFSCSVMHEALHNHYTQKSLSLSPGK	binds	binds	binds	binds	binds	0.24	0.35	5.3	0.34	1.1	0.22
chimera A-E57K-Fc (Eg1S LALAGANA) (Fc fusion) ETFPPKYLHYDEETSHQLLCDKCPPGTYLKQHCTAKWKTVCAPCPPRHYTQFWNYLKRCRYCNVLCGEREEEARACHATHNRACRCRTGFFAHAGFCLEHASCPPGAGVIAPGTPSQNTQCQPCPDGFFSNETSSKAPCRKHTNCSVFGLLLTQKGNATHDNICSGNSESTQKEPKSSDKTHTCPPCPAPEAAGAPSVFLFPPKPKDTLMISRTPEVTCVVVDVSHEDPEVKFNWYVDGVEVHNAKTKPREEQYNSTYRVVSVLTVLHQDWLNGKEYKCKVSNKALPAPIEKTISKAKGQPREPQVYTLPPSRDELTKNQVSLTCLVKGFYPSDIAVEWESNGQPENNYKTTPPVLDSDGSFFLYSKLTVDKSRWQQGNVFSCSVMHEALHAHYTQKSLSLSPGK	binds	binds	binds	binds	binds	0.24	0.34	3.3	0.28	1.1	0.27
chimera A-E57V-Fc (Eg1S LALAGANA) (Fc fusion) ETFPPKYLHYDEETSHQLLCDKCPPGTYLKQHCTAKWKTVCAPCPPRHYTQFWNYLVRCRYCNVLCGEREEEARACHATHNRACRCRTGFFAHAGFCLEHASCPPGAGVIAPGTPSQNTQCQPCPDGFFSNETSSKAPCRKHTNCSVFGLLLTQKGNATHDNICSGNSESTQKEPKSSDKTHTCPPCPAPEAAGAPSVFLFPPKPKDTLMISRTPEVTCVVVDVSHEDPEVKFNWYVDGVEVHNAKTKPREEQYNSTYRVVSVLTVLHQDWLNGKEYKCKVSNKALPAPIEKTISKAKGQPREPQVYTLPPSRDELTKNQVSLTCLVKGFYPSDIAVEWESNGQPENNYKTTPPVLDSDGSFFLYSKLTVDKSRWQQGNVFSCSVMHEALHAHYTQKSLSLSPGK	binds	binds	binds	binds	binds	0.23	0.33	5.2	0.35	1.1	0.21
chimera A-E57K_R58E-Fc (Eg1S LALAGANA) (Fc fusion) ETFPPKYLHYDEETSHQLLCDKCPPGTYLKQHCTAKWKTVCAPCPPRHYTQFWNYLKECRYCNVLCGEREEEARACHATHNRACRCRTGFFAHAGFCLEHASCPPGAGVIAPGTPSQNTQCQPCPDGFFSNETSSKAPCRKHTNCSVFGLLLTQKGNATHDNICSGNSESTQKEPKSSDKTHTCPPCPAPEAAGAPSVFLFPPKPKDTLMISRTPEVTCVVVDVSHEDPEVKFNWYVDGVEVHNAKTKPREEQYNSTYRVVSVLTVLHQDWLNGKEYKCKVSNKALPAPIEKTISKAKGQPREPQVYTLPPSRDELTKNQVSLTCLVKGFYPSDIAVEWESNGQPENNYKTTPPVLDSDGSFFLYSKLTVDKSRWQQGNVFSCSVMHEALHAHYTQKSLSLSPGK	binds	binds	binds	binds	binds	0.16	0.29	4.6	0.28	0.99	0.17
chimera A-E57R-Fc (Eg1S YTE) (Fc fusion) ETFPPKYLHYDEETSHQLLCDKCPPGTYLKQHCTAKWKTVCAPCPPRHYTQFWNYLRRCRYCNVLCGEREEEARACHATHNRACRCRTGFFAHAGFCLEHASCPPGAGVIAPGTPSQNTQCQPCPDGFFSNETSSKAPCRKHTNCSVFGLLLTQKGNATHDNICSGNSESTQKEPKSSDKTHTCPPCPAPELLGGPSVFLFPPKPKDTLYITREPEVTCVVVDVSHEDPEVKFNWYVDGVEVHNAKTKPREEQYNSTYRVVSVLTVLHQDWLNGKEYKCKVSNKALPAPIEKTISKAKGQPREPQVYTLPPSRDELTKNQVSLTCLVKGFYPSDIAVEWESNGQPENNYKTTPPVLDSDGSFFLYSKLTVDKSRWQQGNVFSCSVMHEALHNHYTQKSLSLSPGK	binds	binds	binds	binds	binds	0.33	0.39	5.1	0.3	1.2	0.36
